Literature values in publication PMC3150215.
Like-named read-outs stand apart in the source and are kept apart here.

What was measured:
[1] = target: Capping protein (Mus musculus) (UniProt P47753)
[2] = target: Capping protein (Mus musculus) (UniProt P47753); remark: listed apart in the source

Kd [1] | Kd [2] | Substance
1.5 nM |  | CARMIL CBR115 CBR115 (from UniProt Q6EDY6)
 | 6 nM | CD2AP 474-513 (from UniProt Q9Y5K6)
